# T1: Human CEACAM6 Protein, Human, Recombinant (His Tag) (human, UniProt P40199 35-320)
# T1 construct: Bought antigen; also called CEACAM6抗原; CEACAM6蛋白; not shown: His tag
# T1 sequence (looked up): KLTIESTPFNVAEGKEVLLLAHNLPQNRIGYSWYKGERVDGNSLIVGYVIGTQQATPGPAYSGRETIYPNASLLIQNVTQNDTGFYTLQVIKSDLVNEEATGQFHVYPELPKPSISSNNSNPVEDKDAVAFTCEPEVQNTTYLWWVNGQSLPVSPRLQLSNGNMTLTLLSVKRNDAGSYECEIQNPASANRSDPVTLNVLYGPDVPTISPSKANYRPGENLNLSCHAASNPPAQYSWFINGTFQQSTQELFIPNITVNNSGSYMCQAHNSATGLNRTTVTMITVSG
# Target: T1, Human CEACAM6 Protein, Human, …
# Experiment: phage ELISA, phage-displayed VHH on coated CEACAM6
row,binding result,Binder
1,binds,"单域抗体NBC10 (VHH, Alpaca VHH) VHH: QVKLEESGGGLVQAGGSLRLSCAASGRTFSNYAMGWFREAPGKEREFVGSSSRSGSFSYLVDSVKGRFTIFRDNDKNTVYLQMNSLKPEDTAVYYCAAQTAIRAGVRDDYDFWGQGAQVTVSS"
2,binds,"单域抗体NBC36 (VHH, Alpaca VHH) VHH: QVQLVESGGGLVQAGGSLRLSCVVSGIDFRINNMGWYRQAPGTQRELVASVTPGRNTNYADSVKGRFTISRDNAQNTVYLQMNSLQPEDTAVYSCSAYGPSGAYWGQGTQVTVSS"
3,binds,"单域抗体NBC25 (VHH, Alpaca VHH) VHH: QVKLEESGGGLVQPGGSLRLSCAASGQTARAGIMGWFRQAPGKEREFVAAMGRSGASAYYQDSVQGRFTISRDNAQNTVFLQMNSLKPEDTAVYHCAAGNPIALTTAQYYDYWGQGTQVTVSS"
